Key:
[1] = target: T1, GM2 activator protein (Homo sapiens, UniProt P17900); experiment: Fluorescence dequenching assay (R-18 transport between liposomes; ligand binding)
T1 construct: ID NO; His6 (N); made in house
T1 sequence (P17900 32-193): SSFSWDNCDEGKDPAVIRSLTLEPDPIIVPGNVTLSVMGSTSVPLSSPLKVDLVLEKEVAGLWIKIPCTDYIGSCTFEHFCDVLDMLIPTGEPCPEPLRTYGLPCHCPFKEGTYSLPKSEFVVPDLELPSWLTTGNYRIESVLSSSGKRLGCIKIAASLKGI
Method: The ability of the activator protein to bind GM2 ganglioside, PAF, N-formyl-Met-Leu-Phe (fMLP), or leukotriene B4 (LTB4) was assessed using a fluorescence dequenching assay. This assay was first used to evaluate the ability of the activator to transport a self-quenching fluorescence dye, R-18 (octadecylrhodamine conjugated to a saturated C-18 hydrocarbon chain) (obtained from Molecular Probes), between labeled and unlabeled liposomes (phosphatidylcholine containing large unilamellar vesicles, PC-LUV8). An increase in fluorescence over time when the activator protein and unlabeled liposomes were admixed with R-18 labeled liposomes indicates the ability of the activator to transport the R-18 dye, the fluorescence of which is proportional to concentration of dye that is transported to the unlabelled liposomes. […]
The R-18 labeled liposomes were prepared as follows. […] The column was then eluted with NHE buffer to yield a quantity of labeled liposomes sufficient for 10 assays.
In each fluorescence dequenching assay, 5 μg of activator protein was mixed with 630 nmol of unlabeled liposomes. […] The rate of increase in fluorescence emission was then determined by monitoring at 590 nm, using an excitation wavelength of 560 nm, on a 650-40 fluorometer (Perkin-Elmer). […]
The fluorescence dequenching of the R-18 liposome preparations was measured and calculated as follows. […]

[2] = test system: PAF; experiment: Calcium release assay in INDO-1 AM-loaded neutrophils; type: cell-based, human
Method: Neutrophils were isolated from heparinized venous blood collected from healthy volunteers as previously reported (Laneuville et al., Biochem. J. 295:393-397, 1993). Neutrophils (1 ml, 10^7 cells) were loaded with a […] solution of a fluorescent dye, INDO-1 AM (Calbiochem.) for use in calculating [Ca^2+]i as previously reported (Laneuville et al., supra; Reynaud and Pace-Asciak, Prostaglandins Leukot. Essent. Fatty Acids 56:9-12,1997). For each measurement, 2×10^6 cells were used in 1 ml of cell medium in a temperature-controlled (37° C.) plastic cuvette with continuous stirring. Varying concentrations of functional GM2 activator protein and non-functional truncated GM2 activator protein (i.e. 0, 0.32 and 0.8 nmol) were added to individual cuvettes. Following equilibration of the assay mix, PAF (0.002 nmol) was added and the increase in [Ca^2+]i calculated by a determination of fluorescence. Fluorescence was measured using a Perkin-Elmer fluorescence spectrophotometer as previously reported (Reynaud and Pace-Asciak, supra).
The PAF-response was inhibited by 75% when 800 pmol (15 μg/ml) of activator was present, but not at all in the presence of 800 pmol of the non-functional truncated activator.

[3] = target: T2, β-hexosaminidase A (Homo sapiens, UniProt P06865+P07686); experiment: Conventional biological assay: co-factor for hydrolysis of GM2 ganglioside by β-hexosaminidase A; type: biochemical
T2 sequence (P06865 89-529): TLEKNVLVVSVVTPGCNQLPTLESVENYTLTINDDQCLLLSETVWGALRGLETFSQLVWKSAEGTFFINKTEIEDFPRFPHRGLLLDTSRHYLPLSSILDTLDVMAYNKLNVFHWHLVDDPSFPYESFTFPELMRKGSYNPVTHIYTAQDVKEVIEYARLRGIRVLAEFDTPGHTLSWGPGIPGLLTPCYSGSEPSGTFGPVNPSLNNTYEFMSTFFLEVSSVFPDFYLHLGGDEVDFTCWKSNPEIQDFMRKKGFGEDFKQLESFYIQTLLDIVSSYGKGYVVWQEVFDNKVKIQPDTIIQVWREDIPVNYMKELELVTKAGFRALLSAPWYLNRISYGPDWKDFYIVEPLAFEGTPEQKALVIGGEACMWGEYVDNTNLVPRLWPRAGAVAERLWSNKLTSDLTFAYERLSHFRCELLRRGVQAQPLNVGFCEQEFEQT
T2 sequence (P07686 122-556): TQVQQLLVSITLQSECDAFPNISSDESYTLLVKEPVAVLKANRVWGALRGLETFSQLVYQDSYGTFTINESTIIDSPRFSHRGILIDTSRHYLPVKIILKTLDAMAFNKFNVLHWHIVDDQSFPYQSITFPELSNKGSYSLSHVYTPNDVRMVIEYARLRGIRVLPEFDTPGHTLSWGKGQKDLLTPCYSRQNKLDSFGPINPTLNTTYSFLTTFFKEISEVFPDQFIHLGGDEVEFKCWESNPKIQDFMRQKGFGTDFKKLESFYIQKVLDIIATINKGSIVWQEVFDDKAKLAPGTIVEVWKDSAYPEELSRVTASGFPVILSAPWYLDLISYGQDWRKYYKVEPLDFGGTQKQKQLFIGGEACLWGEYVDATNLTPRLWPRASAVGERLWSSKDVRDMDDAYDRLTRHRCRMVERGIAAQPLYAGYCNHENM
T2 sequence (P17900 32-193 partner): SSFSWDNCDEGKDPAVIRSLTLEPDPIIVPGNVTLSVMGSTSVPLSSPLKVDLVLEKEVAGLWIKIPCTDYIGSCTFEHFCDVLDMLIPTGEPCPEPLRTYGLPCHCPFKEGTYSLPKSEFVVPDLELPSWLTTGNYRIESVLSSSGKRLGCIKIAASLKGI
Text: The conventional biological assay for the GM2 activator involves its function as a substrate specific co-factor for the hydrolysis of GM2 ganglioside by β-hexosaminidase A. This assay (described in detail in Meier et al., J. Biol. Chem., 266:1879-1887, 1991) requires that the activator has a functional hydrophobic binding site.

transport of R-18 between labeled and unlabeled liposomes ([1]; 5 μg activator, 37° C., pH 5, increase in fluorescence over time): found to transport R-18
slope of fluorescence dequenching ([1]; activator in the absence of a ligand compound): 0.256 ΔFu/ΔT(min)
B1: functional activator: Non-glycosylated GM2 activator protein from His6-tag bacterial expression system, SEQ ID NO: 2 (protein)
chain: MRGSHHHHHHGSIEGRSSFSWDNCDEGKDPAVIRSLTLEPDPIVVPGNVTLSVVGSTSVPLSSPLKVDLVLEKEVAGLWIKIPCTDYIGSCTFEHFCDVLDMLIPTGEPCPEPLRTYGLPCHCPFKEGTYSLPKSEFVVPDLELPSWLTTGNYRIESVLSSSGKRLGCIKIAASLKGI
modifications: His6-tag; non-glycosylated; His tag at residues 1 to 17
inhibition of PAF-response ([2]; 800 pmol (15 μg/ml) of activator present, PAF 0.002 nmol): 75%
release of intracellular calcium pools into the cytosol after PAF ([2]; PAF added to cuvettes containing the functional activator): significant decrease
change in [Ca2+]i on addition of extracellular activator protein alone ([2]; added to suspension of INDO-1 AM-loaded cells, before PAF): did not result in a change in [Ca^2+]i
specific activity as co-factor, compared with wild-type glycosylated precursor activator (CHO cells) [3]: functioned in a similar manner to the wildtype activator

From patent US6423680B1, “Inhibitor of platelet activating factor” (HSC Research and Development Limited Partnership, priority 1998, dated 2002)
